From patent publication US20210130491A1 (ONCOTAG DIAGNOSTICS, published 2021)
Blank lines part the entries; values can stand above or below the binder they belong to.

How the values were obtained:
[1] = biological target: T1, co-purified MRS-AIMP3 protein (human, UniProt P56192 1-900; O43324 1-174, limits assumed); experiment: SPR, CM5 chip coated with MRS+AIMP3, antibody flowed at 0.39 to 200 nM
T1 construct: MRS and AIMP3 co-expressed in E. coli BL21DE3 and co-purified
T1 sequence 1: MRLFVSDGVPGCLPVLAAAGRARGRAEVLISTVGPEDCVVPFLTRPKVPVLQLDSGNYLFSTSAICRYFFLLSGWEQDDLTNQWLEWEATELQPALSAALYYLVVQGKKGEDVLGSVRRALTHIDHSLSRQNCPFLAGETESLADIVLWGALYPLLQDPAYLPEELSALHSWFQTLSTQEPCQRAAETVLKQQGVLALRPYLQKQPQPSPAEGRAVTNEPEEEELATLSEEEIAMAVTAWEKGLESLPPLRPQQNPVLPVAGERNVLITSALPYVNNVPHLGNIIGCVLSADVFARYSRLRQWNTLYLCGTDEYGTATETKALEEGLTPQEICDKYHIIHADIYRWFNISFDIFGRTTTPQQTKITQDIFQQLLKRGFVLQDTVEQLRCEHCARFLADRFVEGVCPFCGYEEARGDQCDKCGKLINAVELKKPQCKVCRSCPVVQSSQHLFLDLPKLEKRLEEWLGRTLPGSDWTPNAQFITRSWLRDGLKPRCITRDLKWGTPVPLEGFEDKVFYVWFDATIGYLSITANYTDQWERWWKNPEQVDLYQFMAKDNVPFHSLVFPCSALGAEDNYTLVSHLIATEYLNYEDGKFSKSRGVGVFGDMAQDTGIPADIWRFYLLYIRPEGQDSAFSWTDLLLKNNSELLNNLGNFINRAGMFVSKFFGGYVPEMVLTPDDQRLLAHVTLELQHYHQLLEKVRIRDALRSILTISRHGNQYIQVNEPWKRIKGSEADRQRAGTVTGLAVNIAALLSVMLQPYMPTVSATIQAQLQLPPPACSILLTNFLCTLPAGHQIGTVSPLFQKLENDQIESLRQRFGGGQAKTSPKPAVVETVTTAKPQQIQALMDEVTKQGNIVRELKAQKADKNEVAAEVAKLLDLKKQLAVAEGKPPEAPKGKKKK
T1 sequence 2: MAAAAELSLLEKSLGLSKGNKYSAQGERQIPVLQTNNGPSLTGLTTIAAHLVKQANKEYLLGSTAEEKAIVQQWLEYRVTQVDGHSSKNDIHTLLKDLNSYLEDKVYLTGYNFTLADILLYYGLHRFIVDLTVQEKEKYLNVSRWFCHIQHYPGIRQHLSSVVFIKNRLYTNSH
Protocol: (§1) Surface plasmon resonance (SPR) experiments were carried out using 1E8 and 8A12 antibodies and MRS+AIMP3 protein obtained in Example 1.
(§2) CM5 chips were coated with MRS+AIMP3 or AIMP3 proteins and 1E8 or 8A12 antibodies were flowed at various concentrations to measure the degree of binding reaction with the proteins. Samples or buffers were injected for 8 minutes at a flow rate of 30 μl/min and washed for 20 minutes.

[2] = biological target: T1, co-purified MRS-AIMP3 protein; experiment: SPR, MRS+AIMP3 on CM5 chip, antibody flowed; 8A12 antibody; MRS+AIMP3 on the chip
Protocol: as §1, §2

[3] = biological target: T1, co-purified MRS-AIMP3 protein; experiment: SPR, MRS+AIMP3 on CM5 chip, antibody flowed; 1E8 antibody; MRS+AIMP3 on the chip
Protocol: as §1, §2

[4] = biological target: T1, co-purified MRS-AIMP3 protein; experiment: SPR, CM5 chip coated with MRS+AIMP3, antibody flowed at 0.20 to 200 nM
Protocol: as §1, §2

koff [1]: 0.000213 s⁻¹
kon [1]: 137000 M⁻¹ s⁻¹
Kd [2]: 1.56 nM
B1: 8A12 antibody (8A12 IgG) (antibody, V domains shown)
VH: DVKLQESGPGLVKPSQSLSLTCTVTGYSITSEYAWTWIRQFPGNKLEWMGYINYNGNTNLNPSLKSRISIIRDTSKNQFFLQLNSVTTEDTATYYCARSLWPRGWFAYWGQGTLVTVSA
VL: DIQMTQSPSSMYASLGERVTITCKASQDINSYLSWFQQKPGKSPKTLMYRANRLVDGVPSRFSGSGSGQDYSLTISSLEYEDMGIYYCLQYDEFPRTFGGGTKLEIKA
notes: Mouse monoclonal from hybridoma clone 8A12; also called 8Al2; anti-MRS antibody (8A12)

Kd [3]: 5.42 nM
koff [4]: 0.000526 s⁻¹
kon [4]: 97100 M⁻¹ s⁻¹
B2: 1E8 antibody (1E8 IgG) (antibody, V domains shown)
VH: DVKLQESGPGLVNPSQSLSLTCTVTGYSITSDYAWNWIRQFPGNKLEWMGYISYSGRTSYKSSLKSRISITRDTSKNQFFLELNSVTTEDTATYYCARDYGNFVGYFDVWGAGTTVTVSS
VL: DIVMTQSPSSLAVSVGEKVTMSCKSSQSLLYSSNQKNYLAWYQQKPGQSPKLLIYWASTRESGVPDRFTGSGSGTEFTLTISSVKAEDLAVYYCQQYYSYPTFGGGTKLEIKA
notes: Mouse monoclonal from hybridoma clone 1E8; also called IE8; anti-MRS antibody (1E8)
